Experiment [1] deals with recombinant P. vivax plasmepsin V (residues R35-R476), N-terminal fusion tag removed with TEV protease (Plasmodium vivax) (UniProt A5K302). Briefly: SPR, Biacore 4000, plasmepsin V amine-coupled on a CM5 chip, compound as analyte, 1:1 fit, 25 °C. (In SPR one partner is held on a chip, and binding of the other changes the refractive index at the surface.)
Experiment [2] shares this target. The experiment can be described thus: SPR, Biacore 4000, plasmepsin V amine-coupled on a CM5 chip, 1:1 fit.
Experiment [3] has the same target. Briefly: cell-based or functional assay.
The target is the same in experiment [4]. Briefly: SPR, Biacore 4000, plasmepsin V amine-coupled on a CM5 chip.
Experiment [5] has as its target recombinant P. falciparum plasmepsin V (residues N80-R528) (Plasmodium falciparum) (UniProt Q8I6Z5). Briefly: cell-based or functional assay.

The results in this text go back to patent publication US20190065668A1, “STRUCTURE OF […] IN COMPLEX WITH AN INHIBITOR AND USES THEREOF” (priority 2015, published 2019).

Usually pKd stands for −log10 of the Kd, conventionally taken in molar units. In general, koff refers to the first-order rate constant of dissociation.

pKd: −log10 of the molar value. Some results are limits rather than exact numbers.

Sequence of recombinant P. vivax plasmepsin V (residues R35-R476), N-terminal fusion tag removed with TEV protease (Plasmodium vivax) (A5K302 35-476, tags or fused parts left off): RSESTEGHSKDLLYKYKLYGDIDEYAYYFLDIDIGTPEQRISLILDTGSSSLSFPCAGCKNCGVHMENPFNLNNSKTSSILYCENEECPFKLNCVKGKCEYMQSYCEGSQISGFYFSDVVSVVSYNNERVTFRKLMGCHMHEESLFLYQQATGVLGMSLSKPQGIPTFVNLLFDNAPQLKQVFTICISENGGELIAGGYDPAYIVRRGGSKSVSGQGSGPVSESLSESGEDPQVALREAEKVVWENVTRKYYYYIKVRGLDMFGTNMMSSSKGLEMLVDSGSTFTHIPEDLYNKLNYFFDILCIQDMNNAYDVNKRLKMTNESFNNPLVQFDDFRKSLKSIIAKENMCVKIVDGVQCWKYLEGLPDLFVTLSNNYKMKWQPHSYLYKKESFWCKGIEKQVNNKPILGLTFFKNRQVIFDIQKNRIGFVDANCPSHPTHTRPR
Sequence of recombinant P. falciparum plasmepsin V (residues N80-R528) (Plasmodium falciparum) (Q8I6Z5 80-528): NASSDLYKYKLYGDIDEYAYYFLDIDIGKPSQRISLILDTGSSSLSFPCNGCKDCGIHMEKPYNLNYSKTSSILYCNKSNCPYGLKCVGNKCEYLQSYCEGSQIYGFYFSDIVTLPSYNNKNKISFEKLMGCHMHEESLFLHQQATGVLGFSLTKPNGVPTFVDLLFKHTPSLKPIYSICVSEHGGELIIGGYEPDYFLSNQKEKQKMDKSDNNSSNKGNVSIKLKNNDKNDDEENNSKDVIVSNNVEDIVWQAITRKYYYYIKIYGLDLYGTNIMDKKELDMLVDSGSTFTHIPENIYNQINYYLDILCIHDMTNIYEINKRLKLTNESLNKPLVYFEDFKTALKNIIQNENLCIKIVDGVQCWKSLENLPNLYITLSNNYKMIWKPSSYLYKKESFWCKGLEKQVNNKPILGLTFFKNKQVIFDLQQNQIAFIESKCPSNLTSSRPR

Take “WEHI-842, Cbz-Cav(NH2)-Val-Sta-NH(CH2)2Ph.TFA (peptide)”: the pKd in experiment [1] was 7.87. Further, the koff in experiment [2] was 0.00111 s⁻¹. The IC50, inhibition of cleavage of the fluorogenic KAHRP PEXEL peptide in experiment [3] amounted to 1.6 nM. Moreover, the fold affinity against WEHI-916 in experiment [4] is over 2 fold.
As to WEHI-916 (peptide), the pKd in experiment [1] is 7.38. Also, in experiment [2], the koff worked out at 0.00247 s⁻¹. The IC50, inhibition of cleavage of the fluorogenic KAHRP PEXEL peptide in experiment [3] came out at 8.2 nM; in experiment [5], 12.9 nM.
